{"source": "patent CN112661841A", "about": "(GUANGZHOU 8TH PEOPLES HOSPITAL, dated 2021)", "key": {"[1]": {"biological_target": "T1, SARS-CoV-2 S蛋白 (SARS-CoV-2, UniProt P0DTC2 16-1213)", "assay": "ELISA, antibody on S protein"}, "[2]": {"biological_target": "T2, SARS-CoV-2 S1蛋白 (SARS-CoV-2, UniProt P0DTC2 16-685)", "T2 construct": "domain: S1", "assay": "ELISA"}, "[3]": {"biological_target": "T1, SARS-CoV-2 S蛋白", "assay": "cell-based or functional assay"}, "[4]": {"biological_target": "T3, SARS-CoV-2 S2蛋白 (SARS-CoV-2, UniProt P0DTC2 686-1213)", "T3 construct": "domain: S2", "assay": "ELISA, antibody on S2 protein"}}, "data": [{"binder": "全人单克隆抗体17-2 (antibody, V domains shown, also called 17-2抗体) VH: QLQLQESGPGLVKASETLSLTCTVSSGSVSSDSYYWSWIRQPPGKGLEWIGYIYYSGSTNYNPSLKSRVTMSVDTSKNQFSLKLDSVTAADTAAYYCARGPLGLYYYYMDVWGKGTTVTVSS VL: DIQMTQSPSSLSASVGDRVTITCRASQSINNYLNWYQQKPGKAPKLLIYAASSLQSGVPSRFSGSGSGTDFALTISGLQPEDFATYYCQESNSSPFTFGPGTKVDIK", "values": [{"measurement": "EC50", "setting": "[1]", "value": 0.034, "unit": "µg/mL"}, {"measurement": "binding result", "setting": "[2]", "value": "no binding"}, {"measurement": "假病毒中和实验 IC50", "setting": "[3]", "value": 0.587, "unit": "µg/mL"}, {"measurement": "EC50", "setting": "[4]", "value": 0.038, "unit": "µg/mL"}]}]}
